Like-named read-outs stand apart in the source and are kept apart here.

Holding throughout (settings): remark: other sources report otherwise
In assay [1] the target is human EGFR endogenously expressed on A431 cells (human), P00533.
Assay [2] has as its target human EGFR on cells (human), P00533.
Assay [3] has the same target. This is another data set of the same source.
Assay [4] shares this target. This is another data set of the same source.

B1: 30D8-hIgG1 (antibody, V domains shown)
VH: EVQLVESGGGLVKPGGSLRLSCEASGFTFSDAWMSWVRQAPGKGLEWVGRIKSKTDGGTTDYVVPLNGRFIISRDDSRNTLYLQLNNLKTEDTAVYYCTTVPGSYGYWGQGTLVTVSS
VL: DIVMTQSPLSLPVTPGEPASISCRSSQSLLHNKRNNYLDWFLQKPGQSPQLLIYLASNRASGVPDRFSGGGSGTDFTLKISRVEAEDVGVYYCMQAQQTPITFGQGTRLEIK
As to B1, the Max MFI in assay [1] turned out to be 712; in assay [2], 143; in assay [4] it was 88. Moreover, the Average fluorescence intensity in assay [3] came to 528.
